Test results taken from US11857509B2, “Liposome compositions and methods of use thereof” (University of Rhode Island Board of Trustees, priority 2010, dated 2024).
“And” between values parts separate entries of the source, which are not always exact repeats. Identical values can stand only once.

Key:
acidic tissues, tumors = experiment: In vivo fluorescence imaging of tissue and tumor targeting; design: species or system mice and rats
Excerpt: The pH-dependent interaction of pHLIP with membranes allows selectivity in the targeting of acidic (less than pH 7.0) diseased tissue. As noted above, acidity and hypoxia are considered as universal cancer biomarkers, and pHLIP is used as an acidity-targeting probe. Besides cancer, many other pathological states, such as inflammation, ischemia, stroke, arthritis and others are characterized by acidity in the extracellular space, which may broaden the potential applications of pHLIP. […] In addition to fluorescence imaging, PET (positron emission tomography) imaging of the acidic environment in human prostate tumors was performed using ^64Cu-DOTA conjugated to pHLIP. […] To manipulate the acidity of tissues, a buffer solution is administered to the subject systemically or local to the area in which a pH change is desired. In this manner, pHLIP-liposome-mediated delivery of a cargo compound is regulated, e.g., reduced or stopped. For example, administering bicarbonated water, which increases tissue pH, results in a reduction of tumor targeting by pHLIP.
The transmembrane (TM) part of exemplary pHLIP peptides contain two Asp residues. […] The replacement of the key Asp residues by Lys, Ala or Asn leads to the loss of peptide of pH-dependent membrane insertion, as measured in liposomes, red blood cells and confirmed by in vivo fluorescence imaging. […]

[1] = Oligomeric state and aggregation of pHLIP in solution and on membranes; type: physicochemical
Procedure: Poor solubility due to aggregation is a typical property of membrane peptides, which has complicated studies and applications. Isolated or purified pHLIP, as any membrane peptide, also has a tendency to aggregate, especially at high concentrations and/or low pH. However, in aqueous solution at neutral pH pHLIP exists as a monomer at concentrations less than 30 μg/mL (˜7.0 μM), as studied by fluorescence and CD spectroscopy measurements, size exclusion chromatography coupled with “on-line” laser light scattering, ultraviolet and refractive index detection (SEC-LS/UV/RI) and analytical ultracentrifugation experiments. When the solubility of the peptide is compromised as a result of mutations, the affinity of the peptide for a membrane and its overall conformational properties change. Thus, studies were undertaken to design pHLIP peptides that are optimized for clinical diagnostic and therapeutic use.
The oligomeric state of the peptide on the surface of a membrane (state II) and inserted into the lipid bilayer (state III) were evaluated by FRET performed with two different donor-acceptor probes attached to the N-terminus of the peptide.

[2] = pH-dependent membrane insertion of pHLIP peptides; type: physicochemical
Excerpt: Peptide folding and membrane insertion are driven by a drop of pH from neutral or high (>7.4) to slightly acidic (7.0-6.5 and less) pHs. […] In contrast, all pore forming peptides first form aggregates on the membrane surface and then “fall” into membrane and form pores.
The transmembrane (TM) part of exemplary pHLIP peptides contain two Asp residues. At neutral pH these charged residues enhance peptide solubility and serve as anchors keeping the peptide at the surface of membrane, thereby preventing pHLIP partitioning into the hydrophobic membrane bilayer. A reduction of pH induces protonation of Asp residues, and as a result, the overall hydrophobicity of the peptide increases, enhancing the affinity of the peptide for the lipid bilayer core and triggering peptide folding and insertion. The replacement of the key Asp residues by Lys, Ala or Asn leads to the loss of peptide of pH-dependent membrane insertion, as measured in liposomes, red blood cells and confirmed by in vivo fluorescence imaging. […] The Ala substitutions yield a peptide that aggregates in solution (but de-aggregates when it becomes diluted in bodily fluids or tissue upon administration to a subject), while the Lys and Asn substitutions give peptides that are too polar to insert either at neutral or low pH. […]

[3] = in vivo
Excerpt: If the peptide sequence were made more hydrophobic, tighter binding to red blood cells and epithelial cells and more aggregation in solution, and slower clearance and reduced bioavailability would occur. Making the peptide less hydrophobic accelerates clearance and prevents the peptide from finding its targets. Therefore, fine tuning of the solubility is an important property to optimize pHLIP performance in vivo.

[4] = system: liposomes and cellular membranes; type: cell-based
Excerpt: Toxicity is one of the most critical issues in the selection of any delivery agent. For example, the use of pore-forming membrane peptides as delivery agents is complicated by the toxicity associated with the formation of pores in cellular membranes in vivo.

Substance: K-pHLIP (ACEQNPIYWARYAKWLFTTPLLLLKLALLVDADEGTG; pHLIP variant)
- targeting of acidic tissue and tumors (acidic tissues, tumors): does not demonstrate tumor targeting

Substance: pHLIP: water-soluble polypeptide based on the bacteriorhodopsin C helix, e.g. SEQ ID NO: 4 (ACEQNPIYWARYADWLFTTPLLLLDLALLVDADET; pHLIP variant)
- oligomeric state in states I, II and III [1]: monomer
- concentration at which pHLIP exists as a monomer ([1]; aqueous solution at neutral pH): less than 30 μg/mL and ~7.0 μM
- apparent pK of insertion [2]: 6.0
- targeting of acidic tissue and tumors (acidic tissues, tumors): can target acidic tissues
- circulation in the blood [3]: several hours
- cellular toxicity [4]: no cellular toxicity
- membrane leakage [4]: does not lead to membrane leakage
